# Assay results published in IntAct's records for PubMed 18342605.
# How the values were obtained:
# [1] = biological target: pp12_yeast GLC7 (UniProt P32598)
# [2] = biological target: nab3_yeast NAB3 (UniProt P38996)
# Sequence of UniProt P38996 (P38996 whole entry): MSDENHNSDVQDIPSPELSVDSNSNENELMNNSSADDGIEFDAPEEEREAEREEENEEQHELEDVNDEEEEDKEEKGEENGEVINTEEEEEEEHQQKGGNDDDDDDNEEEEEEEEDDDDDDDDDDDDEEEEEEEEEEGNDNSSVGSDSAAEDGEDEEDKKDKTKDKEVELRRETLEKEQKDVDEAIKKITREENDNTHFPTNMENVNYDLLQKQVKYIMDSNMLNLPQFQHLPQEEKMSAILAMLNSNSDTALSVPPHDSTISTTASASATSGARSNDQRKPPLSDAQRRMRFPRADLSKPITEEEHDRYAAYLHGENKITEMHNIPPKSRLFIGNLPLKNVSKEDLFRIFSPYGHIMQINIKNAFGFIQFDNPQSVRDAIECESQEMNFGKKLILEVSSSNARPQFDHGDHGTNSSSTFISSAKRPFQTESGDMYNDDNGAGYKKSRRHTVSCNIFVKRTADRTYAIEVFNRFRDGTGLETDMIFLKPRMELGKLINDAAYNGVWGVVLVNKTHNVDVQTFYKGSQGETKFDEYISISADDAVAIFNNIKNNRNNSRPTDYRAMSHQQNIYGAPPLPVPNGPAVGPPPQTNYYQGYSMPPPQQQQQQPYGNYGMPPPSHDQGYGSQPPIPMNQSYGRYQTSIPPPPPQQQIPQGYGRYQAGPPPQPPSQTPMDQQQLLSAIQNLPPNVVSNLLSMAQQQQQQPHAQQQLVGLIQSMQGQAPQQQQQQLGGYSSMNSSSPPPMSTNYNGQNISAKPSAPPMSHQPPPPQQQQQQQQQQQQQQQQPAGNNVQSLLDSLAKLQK
# Sequence of UniProt P32598 (P32598 whole entry): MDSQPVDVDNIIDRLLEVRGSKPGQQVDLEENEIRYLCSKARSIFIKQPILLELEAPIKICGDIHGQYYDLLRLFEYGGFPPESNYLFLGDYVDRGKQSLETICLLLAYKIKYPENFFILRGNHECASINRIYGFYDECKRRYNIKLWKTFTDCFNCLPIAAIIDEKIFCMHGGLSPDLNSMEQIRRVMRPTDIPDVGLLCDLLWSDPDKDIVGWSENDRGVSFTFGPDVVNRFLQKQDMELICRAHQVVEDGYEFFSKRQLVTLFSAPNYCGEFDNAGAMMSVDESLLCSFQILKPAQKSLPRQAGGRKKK
Substance,effect of a mutation on the interaction [1],effect of a mutation on the interaction [2]
"Helicase SEN1 (Saccharomyces cerevisiae), Q00416 K1999A",with no effect,with no effect
"Helicase SEN1 (Saccharomyces cerevisiae), Q00416 F2003A",disrupting interaction strength,with no effect
